This is an account of results in US20240342244A1, “Isthmin Protein Therapeutics for the Treatment of Non-Alcoholic Fatty Liver Disease” (The Board of Trustees of the Leland Stanford Junior …, priority 2021, published 2024).

The subject of one data set is primary mouse adipocytes. As to the kind of experiment: 2-deoxy-3H-glucose uptake in primary mouse adipocytes. It is filed as cell-based. The method, then:
Mouse and human pre-adipocytes culture and differentiation. Inguinal fat pads from 4-8 week old C57BL/6J male and female mice were dissected and mechanically digested for 10 min using spring scissors. Digested tissues were incubated in WAT isolation buffer (10 ml PBS, 2.4 U/ml dispase II (#04942078001, Roche), 10 mg/ml collagenase D (#11088858001, Roche) at 37° C. for 45 min. 20 mL growth media was added and the tissue suspension was filtered through a 100-μm cell strainer and centrifuged at 600×g for 5 min. The cell pellets were resuspended in 20 mL growth media, filtered through a 40-μm cell strainer, centrifuged at 600×g for 5 min, resuspended in 10 mL growth media, and plated in 10-cm collagen-coated dishes. The cells were cultured in growth media (DMEM/F-12 Glutamax, Thermo Fisher Scientific #10565018) supplemented with 10% fetal bovine serum. Two days post-confluency, differentiation was induced with growth media containing 1 μM rosiglitazone, 0.5 mM isobutylmethylxanthine, 1 μM dexamethasone, 5 μg/mL insulin. After two days, cells were re-fed with growth media containing 1 μM rosiglitazone and 5 μg/mL insulin. Cells were fully differentiated after 6-8 days. For ISM1 knockdown or overexpression in primary adipocytes using adenovirus, 500 μL crude virus was mixed with 500 μL fresh growth media containing 1 μM rosiglitazone and 5 μg/mL insulin was added to each well at day 2 of differentiation. At day 4, virus-containing media was removed and 500 μL fresh growth media without stimulators was added to each well. SGBS cells were differentiated as described previously (Fischer-Posovszky et al., 2008; Wabitsch et al., 2001). Briefly, cells were cultured in growth media DMEM/F-12 Glutamax, supplemented with 10% fetal bovine serum, 33 uM biotin, and 17 uM pantothenate. Two days post confluency, differentiation was induced with serum-free DMEM/F12 media containing 33 uM biotin, 17 uM pantothenate, 0.01 mg/ml transferrin, 20 nM insulin, 100 nM cortisol, 0.2 nM triiodothyronine, 25 nM dexamethasone, 0.25 mM isobutyl methylxanthine, and 2 μM rosiglitazone. After four days, cells were re-fed with growth media containing 0.01 mg/ml transferrin 20 nM insulin, 100 nM cortisol, 0.2 nM triiodothyronine. Cells were fully differentiated after day 8-10.
Glucose uptake. Glucose uptake was performed as previously described (You et al., 2017). Briefly, 2-Deoxy-d-[2,6-3H]-glucose was purchased from PerkinElmer NEN radiochemicals. Fully differentiated adipocytes were washed with KRH buffer and starved in 0.5% BSA in KRH buffer for 4 h. Indicated concentrations of insulin or ISM1 were added at indicated time points. Cells were treated with a mixture of 500 μM 2-deoxy-D-glucose and 1.71 μCimL^−1 2-Deoxy-D-[1,2-3H (N)]-glucose for another 10 min followed by three washes using ice cold KRH buffer containing 200 mM glucose. The passive glucose uptake in the presence of 50 uM CytoB was less than 12% of the total glucose uptake. Cells were solubilized in 1% SDS and radioactivity was measured by liquid scintillation counting.

The test system of another data set is ISM1-KO mice. As to the kind of experiment: In vivo 2-deoxy-3H-glucose uptake in ISM1-KO mice treated with ISM1 protein. As to conditions: 5 mg/kg ISM1 protein for two days; male ISM1-KO mice. Set-up: species or system mouse. The method, then: In vivo glucose uptake. Mice were fasted for 1 h and injected I.P. with 3H-2-deoxyglucose (3H-2-DOG) at 100 uCi/kg with or without 0.75 U/kg insulin in a total volume of 120 ul per mouse. After 30 min, mice were euthanized. Blood was collected by cardiac puncture and subsequently centrifuged to collect serum. Wet tissue weights were recorded then homogenized in 1% SDS for liquid scintillation counting. Data are expressed as CPM/mg wet weight (fold change over control).

The subject of a further data set is pTyr. As to the kind of experiment: Western blot of pTyr levels. Format: cell-based. The note with it: 100 nM; 2 minutes. The protocol: Western blots and molecular analyses. For western blotting, homogenized tissues or whole-cell lysates, samples were lysed in RIPA buffer containing protease inhibitor cocktail (Roche) and phosphatase inhibitor cocktail (Roche). Cell lysates were centrifuged at 14,000×g for 15 min and supernatants were prepared in 4×LDS Sample Buffer (Invitrogen) and separated by SDS-PAGE and transferred to Immobilon 0.45 μm membranes (Millipore). For Western blotting of plasma samples, 1 μl of plasma was prepared in 2× sample buffer (Invitrogen) with reducing agent, boiled, and analyzed using Western blot against indicated antibody. Protein kinase array (R&D systems ARY003B) was performed according to the manufacturers' description. All antibodies used in this paper are described in STAR methods.

Another data set concerns AML12 hepatocytes. As to the kind of experiment: Protein synthesis assay (3H-leucine incorporation into proteins) in AML12 hepatocytes. Format: cell-based, mouse. The note with it: 24 h. The protocol:
Protein synthesis Assay. AML12 hepatocytes were washed twice with warm PBS and starved in serum-free media overnight. Indicated concentrations of insulin with or without ISM1 and 0.25 uCi of [3H]-Leucine (#NET460250UC, PerkinElmer) were added at the same time. After a 24 h incubation, cells were washed three times with ice cold PBS and lysed in RIPA buffer containing protease inhibitor cocktail (Roche). After 15 min centrifugation at 14000×g, supernatants were transferred to new tubes. Trichloroacetic acid was added to the protein extracts at a final concentration of 10% and incubated on ice for 1 h. After a 15 min centrifugation at 14000×g, pellets were washed with cold acetone, diluted in 10M NaOH and transferred to scintillation vials. The radioactivity was measured by liquid scintillation counting.

The nature of data set [1]: Pharmacokinetic measurement of ISM1 blood levels (anti-his ELISA, western blot). It is filed as in vivo, mouse. The note with it: mice. The protocol:
Pharmacokinetic measurements of ISM1 blood levels following ISM1 administration. An anti-his tag ELISA was performed to measure ISM1-his concentrations in blood. Recombinant ISM1 protein was administered at 10 mg/kg I.V. in a total volume of 100 ul. Blood was collected and centrifuged at 6000×g for 10 minutes at room temperature to collect serum. Blood levels were measured using the HisProbe-HRP Conjugate according to the manufacturer's instructions (Thermo #15165). Briefly, samples were prepared by diluting serum in coating buffer at 1:100 ratio and added to wells for overnight incubation at 4° C. Nonspecific binding was blocked by adding blocking buffer and incubating for 30 min at 37° C. The plate was washed three times with wash buffer. HisProbe-HRP (Thermo, #15165) working solution was added to each well. After 15 min incubation at room temperature, the plate was washed four times with wash buffer, followed by adding substrate (Thermo, #34022). After 10 min, 1N sulfuric acid was added to stop the reaction. Absorbance was measured at 450 nm.

B1: ISM1: recombinant mouse ISM1 protein with a C-terminal myc-his tag generated in mammalian HEK 293 Expi cells (protein, UniProt A2ATD1 30-454, looked up)
Isthmin-1: SDRQDAAAGNNNLNLESDSTSETSFPLSKEAPEEHQVVHQPFPRQRFPPETGHPSLQRDGPRSFLLDLPNFPDLSKADINGQNPNIQVTIEVVDGPDSEAEKDQHPENKPSWSLPAPDWRAWWQRSLSLARTNSGDQDDKYDSTSDDSNFLSVPRGWDRPAPGHRTFETKEQPEYDSTDGEGDWSLWSVCSVTCGNGNQKRTRSCGYACIATESRTCDRPNCPGIEDTFRTAATEVSLLAGSEEFNATKLFEVDMDSCERWMSCKSEFLKKYMHKVINDLPSCPCSYPTEVAYSTADIFDRIKRKDFRWKDASGPKEKLEIYKPTARYCIRSMLSLESTTLAAQHCCYGDNMQLITRGKGAGTPNLISTEFSAELHYKVDVLPWIICKGDWSRYNEARPPNNGQKCTESPSDEDYIKQFQEAREY
modifications: C-terminal myc-His tag
notes: recombinant mouse ISM1 protein with a C-terminal myc-his tag generated in mammalian HEK 293 Expi cells
As to B1, the “glucose uptake when added to insulin” value in the data set with primary mouse adipocytes (100 nM ISM1 in cells treated with 50 nM insulin, 1 h) is on record as “further increased insulin-induced uptake”. For the same molecule, the “increase in glucose uptake” value in the data set with primary mouse adipocytes (100 nM, absence of insulin, across multiple experiments) was “around 1.5 fold”. The “desensitization of glucose uptake on prolonged treatment” value with primary mouse adipocytes (24 h vs 4 h protein treatment, 100 nM) is “does not lead to desensitization”. Also, the “effect on glucose uptake relative to that of insulin” value in the data set on primary mouse adipocytes (primary mouse adipocytes) is < 50%. Also, in the data set on ISM1-KO mice, the “glucose uptake in BAT” value is “increase glucose uptake”, the “glucose uptake in iWAT” value is “trending increase”, the “glucose uptake in liver” value is given as “no hepatic glucose uptake induction” and the “glucose uptake in skeletal muscle” value was “increase glucose uptake”. Besides, the “tyrosine phosphorylation of proteins” value in the data set on pTyr was “induces phosphorylation of tyrosine residues on proteins >100 kDa in size”. Besides, in the data set on AML12 hepatocytes (100 nM ISM1 and 50 nM insulin vs 50 nM insulin alone), the “lipid synthesis versus protein synthesis, side-by-side” value is “suppresses lipid synthesis in favor of protein synthesis”. In the data set on AML12 hepatocytes (combined chronic ISM1 and insulin (50 nM) treatment), the “induction of protein synthesis (H3-leucine incorporation)” value is on record as 2.9 fold. The “half-life in the blood” value in data set [1] (10 mg/kg I.V., serum, anti-his ELISA) was “approximately 70 minutes”. Further, in data set [1] (after I.V. administration), the “protein integrity in plasma (western blot)” value was “no observed protein degradation or cleavage”.
